Source: paper PMC8994517

Molecular target: Human Hsp90α (human) (UniProt P07900)
Experiment: cryo-EM structure

stoichiometry N (GR per Hsp90 dimer): 1
Substance: MBP (maltose-binding protein)-GR ligand-binding domain (LBD) (F602S) (520-777) (from UniProt P04150 520-777) (domain or fragment)
